# Test results taken from article PMC10952772 (The Febs Journal, 2022).
# Read-outs that look alike come from different tables or passages of the source.
# T1: Human Scribble (SCRIB) PDZ3 domain (1002-1094) (human, UniProt Q14160 1002-1094)
# T1 sequence: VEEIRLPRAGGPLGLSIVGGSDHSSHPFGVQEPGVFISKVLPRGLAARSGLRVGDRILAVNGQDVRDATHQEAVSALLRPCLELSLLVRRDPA
# T2: Human Scribble (SCRIB) PDZ4 domain (1099-1203) (human, UniProt Q14160 1099-1203)
# T2 sequence: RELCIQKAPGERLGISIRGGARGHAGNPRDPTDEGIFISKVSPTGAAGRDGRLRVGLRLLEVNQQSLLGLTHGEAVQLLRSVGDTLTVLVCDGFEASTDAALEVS
# B1: Human Scribble (SCRIB) PDZ2 domain (860-950) (domain or fragment)
# chain: RHVACLARSERGLGFSIAGGKGSTPYRAGDAGIFVSRIAEGGAAHRAGTLQVGDRVLSINGVDVTEARHDHAVSLLTAASPTIALLLEREA
# How the values were obtained:
# PDZ = details: phosphorylated at the −2 position; ref [51], [52]; cited from earlier work
# [1] = biological target: T1, Human Scribble (SCRIB) PDZ3 domain …; assay: ITC
# [2] = biological target: B1; assay: ITC
# [3] = biological target: T2, Human Scribble (SCRIB) PDZ4 domain …; assay: ITC
# [4] = biological target: T3, Human Scribble (SCRIB) PDZ1 domain (728-815) (human, UniProt Q14160 728-815); assay: ITC
# T3 sequence (Q14160 728-815): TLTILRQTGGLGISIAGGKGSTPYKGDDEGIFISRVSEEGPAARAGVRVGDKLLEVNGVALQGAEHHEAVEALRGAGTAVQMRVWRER
# AUC = biological target: the molecule itself; assay: AUC
# [5] = biological target: T1, Human Scribble (SCRIB) PDZ3 domain …; assay: ITC; remark: listed apart in the source
# [6] = biological target: B1; assay: ITC; remark: listed apart in the source
# [7] = biological target: T2, Human Scribble (SCRIB) PDZ4 domain …; assay: ITC; remark: listed apart in the source
# [8] = biological target: T3, Human Scribble (SCRIB) PDZ1 domain …; assay: ITC; remark: listed apart in the source
molecule,measurement,setting,value
HTLV‐1 Tax1: oncogenic Tax1 protein of HTLV‐1,effect of phosphorylation at the −2 position of PBM on PDZ recognition,PDZ,phosphorylation inhibiting PDZ recognition
RSWFETWV [Superpeptide (RSWFETWV)],Kd,[1],1.6 µM
same,dH,[1],-11.3 kcal/mol
same,stoichiometry N,[1],0.9
same,Kd,[2],2.2 µM
same,dH,[2],-7.04 kcal/mol
same,stoichiometry N,[2],1
same,Kd,[3],12.6 µM
same,dH,[3],-2.9 kcal/mol
same,stoichiometry N,[3],1.1
same,Kd,[4],0.6 µM
same,dH,[4],-3.72 kcal/mol
same,stoichiometry N,[4],0.9
B1,stoichiometry N,AUC,2
"KHFRETEV [HTLV-1 Tax1 PBM peptide (KHFRETEV, residues 346-353)]",Kd,[5],9.1 µM
same,dH,[5],-13.3 kcal/mol
same,stoichiometry N,[5],0.9
same,Kd,[6],15.4 µM
same,dH,[6],-4.08 kcal/mol
same,stoichiometry N,[6],1.1
same,Kd,[7],40.2 µM
same,dH,[7],-2.17 kcal/mol
same,stoichiometry N,[7],1
same,Kd,[8],7.8 µM
same,dH,[8],-4.21 kcal/mol
same,stoichiometry N,[8],1.1
